Measured values as given in patent US20080166345A1, “MEDICAMENTS COMPRISING GENE RECOMBINANT ANTIBODY AGAINST GANGLIOSIDE GD3” (KYOWA HAKKO KOGYO CO., LTD., priority 2001, published 2008).

What was measured:
[1] = test system: GD3 expressing B16 cell B16•29-10; test: Antitumor effects of KM871 with human IL-2, mouse syngeneic graft model; type: in vivo, C57 BL/6 mouse; settings: FIG. 4; KM871 50 μg/day, IL-2 10 μg/day, days 6-14, tail vein
Protocol: Six days after the tumor inoculation, the tumor diameter was measured using slide calipers to calculate the tumor volume by the following equation, and individuals having the value within the range of 10 to 80 mm^3 were selected.
Tumor volume=(width)^2×length×0.5
They were divided into groups in such a manner that the average tumor volume became uniform, and then the following administration groups of A to D were arranged to carry out continuous administration of the following agents from the tail vein once a day for 8 days (from the 6th day to 14th day).
IL-2 (Human Recombinant IL-2, Manufactured by Peprotech) Alone Group:
The test was carried out using 5 animals for each group. Each agent was prepared to 200 μl per animal by diluting with a citrate buffer (an aqueous solution of 10 mM citric acid and 150 n sodium chloride, adjusted to pH 6 with sodium hydroxide). From the 6th day after the inoculation, the tumor volume was periodically measured, and the antitumor effects were judged by comparing the mean value of specific volume V/V0 in each group.

B16-F10 cell = test: Fluorescent antibody technique (flow cytometer), parent cell line; type: binding, mouse; settings: antibody 5 μg/ml; FIG. 3
Protocol: (§1) Each of 1×10^6 cells of the GD3 synthase gene transfectants B16-8-3 and B16-29-10 obtained in b. of the item (2) of Example 1 and the parent cell line B16-F10 cell were suspended in PBS, put into a microtube (manufactured by Treff) and centrifuged (2,000 rpm for 2 minutes) for washing the cells, 50 μl of the anti-GD3 human chimeric antibody KM871 (a solution prepared by adjusting to 5 μg/ml with 1% BSA-PBS, negative control was 1% BSA-PBS alone) was added thereto, followed by stirring, and the reaction was carried out at 4° C. for 1 hour. After the reaction and subsequent washing with PBS by centrifugation three times, 100 μl of biotin-labeled goat anti-human IgG (H+L) solution (manufactured by VECTOR, used by diluting 400 folds with 1% BSA-PBS) was added thereto, followed by stirring, and the reaction was carried out at 4° C. for 1 hour. After washing with PBS by centrifugation three times, 100 μl of a streptoavidin-labeled Cy5 pigment solution (Streptoavidin-RED670 manufactured by GIBCO, used by diluting 100 folds with 1% BSA-PBS) was added thereto, followed by stirring, and the reaction was carried out at 4° C. for 30 minutes. After the reaction and subsequent washing with PBS by centrifugation three times, the cells were again suspended in PBS to carry out the analysis using a flow cytometer EPICS Elite (manufactured by COULTER).

[2] = test system: human melanoma culture cell line G-361; test: In vitro cytotoxic activity (ADCC activity), 51Cr release; type: cell-based; settings: FIG. 25
Protocol: (§2) Each of human melanoma culture cell lines, G-361 (ATCC CRL 1424) and SK-MEL-28 (ATCC HTB72), was cultured in RPMI1640-FBS(10) medium and adjusted to 1×10^6 cells, and the cells were isotope-labeled by adding 1.85 MBq equivalent of a radioactive substance Na2^51CrO4 and carrying out the reaction at 37° C. for 1 hour. After the reaction, the cells were washed three times by their suspension in RPMI1640-FBS(10) medium and centrifugation, re-suspended in the medium and then incubated in ice at 4° C. for 30 minutes to thereby spontaneously release the radioactive substance. After centrifugation, the cells were adjusted to 2×10^5 cells/ml by adding 5 ml of RPMI1640-FBS(10) medium and used as the target cell suspension.
(§3) Healthy human vein blood (50 ml) was collected, and 0.5 ml of heparin sodium (manufactured by Takeda Pharmaceutical) was gently added thereto. The resulting mixture was centrifuged (1,500 to 1,800×g for 30 minutes) using Polymorphprep (manufactured by Nycomed Pharma AS) in accordance with the manufacturers instructions to separate a mononuclear cell layer. […]
(§4) Into each well of a 96 well U bottom plate (manufactured by Falcon), 50 μl of the target cell suspension prepared in “a.” was dispensed (1×10^4 cells/well). […] After the reaction, the plate was centrifuged and the amount of ^51Cr in the supernatant was measured by a γ-counter. The amount of the spontaneously dissociated ^51Cr was calculated by carrying out the same procedure using the medium alone instead of the effector cell suspension and antibody solution and measuring the amount of ^51Cr in the supernatant. The amount of the total dissociated ^51Cr was calculated by carrying out the same procedure by adding the medium alone instead of the antibody solution, and 5 N sodium hydroxide instead of the effector cell suspension, and measuring the amount of ^51Cr in the supernatant. The ADCC activity was calculated by the following equation.

[3] = test system: human melanoma culture cell line SK-MEL-28; test: as above; type: cell-based; settings: antibody 0.05 to 50 μg/ml, effector:target 50:1; FIG. 25
Protocol: as §2, §3, §4

B16-29-10 = test: Fluorescent antibody technique (flow cytometer), GD3 synthase transfectant; type: binding, mouse; settings: antibody 5 μg/ml; FIG. 3
Protocol: as §1

B16-8-3 = test: as above; type: binding, mouse; settings: antibody 5 μg/ml; FIG. 3
Protocol: as §1

B1: KM871: anti-GD3 human chimeric antibody; VH SEQ ID NO:49, VL SEQ ID NO:50, human IgG1 and κ C regions (antibody, listed as Mus musculus, V domains shown)
VH: EVTLVESGGDFVKPGGSLKVSCAASGFAFSHYAMSWVRQTPAKRLEWVAYISSGGSGTYYSDSVKGRFTISRDNAKNTLYLQMRSLRSEDSAMYFCTRVKLGTYYFDSWGQGTTLTVSS
VL: DIQMTQTASSLPASLGDRVTISCSASQDISNYLNWYQQKPDGTVKLLIFYSSNLHSGVPSRFSGGGSGTDYSLTISNLEPEDIATYFCHQYSKLPWTFGGGTKLEIKR
modifications: human IgG1 and kappa constant regions
tumor growth inhibitory effects (mean V/V0) [1]: antitumor effects were not found | reactivity with cells (B16-F10 cell): did not show reactivity | difference in ADCC cytotoxic activity among KM871, KM8869, KM8870 and KM8871 ([2]; G-361 and SK-MEL-28): difference in the cytotoxic activity was not found | ADCC activity ([2]; antibody 0.05 to 50 μg/ml, effector:target 50:1): strong ADCC activity | ADCC activity [3]: strong ADCC activity | reactivity with cells (B16-29-10): reacted | reactivity with cells (B16-8-3): reacted
